Test results taken from PMC11811267 (Journal of Separation Science, 2025).

Experiments:
[1] = Freeze-thaw stability in artificial plasma after storage at −80°C; assay type: in vitro ADME; details: stored at −80°C, triplicate, 2D-LC-MS/MS; for 24 h, change (%): cycle at 24 h; for 48 h, change (%): cycle at 48 h; for 72 h, change (%): cycle at 72 h
Protocol: (§3) The stability tests of all insulins were performed at two concentration levels (193 and 7752 pg/mL). One set of tests was performed with artificial plasma and the other set with artificial plasma containing 1% PIC. Each concentration level was tested in triplicate. These QC samples were quantified using an artificial plasma calibration curve without PIC, and the obtained concentrations were compared with the nominal concentrations of the low quality control (LQC) and high quality control (HQC), which were set to 100%. To evaluate the stability of insulins in artificial plasma containing 1% PIC, we considered the concentration measured at time zero as the baseline (100%). All subsequent changes in concentration were calculated relative to this initial measurement.
(§4) Short‐term stability, long‐term stability, and freeze‐thaw stability were evaluated in this study. LQC and HQC samples were stored at room temperature and in a refrigerator for 3, 6, and 24 h to assess short‐term (bench‐top) stability and at 4°C in the autosampler for 24 h to assess re‐injection stability.

[2] = Adsorption test in three types of glass vials; assay type: physicochemical; details: 15 ng/mL in 6.7% acetic acid in water:methanol (60:40, v/v), UHPLC-MS/MS, Figure S10
Protocol: We prepared stock solutions of all insulins, which were then transferred to three different types of glass vials and analyzed by LC‐MS/MS. For the adsorption test, a mixture of all insulins at a concentration of 15 ng/mL was prepared in a solvent containing 6.7% acetic acid in a water:methanol mixture (60:40, v/v). The mixture was then transferred to three types of vials and analyzed by UHPLC‐MS/MS. This experiment was performed prior to the optimization of the chromatographic method.

[3] = Short-term stability in refrigerator (4°C) in artificial plasma with and without 1% PIC; details: triplicate, 2D-LC-MS/MS
Protocol: (§1) A mixed standard solution containing all insulins at a concentration of 10,000 ng/mL was obtained by diluting the stock solutions with artificial plasma. This stock solution was further diluted with artificial plasma to produce a series of calibration standards at the following concentrations: 50, 100, 150, 250, 500, 1,000, 1500, 2500, 5000, 10 000, and 15 000 pg/mL. Quality control (QC) samples were prepared in artificial plasma at 200, 800, 3000, and 9000 pg/mL and analyzed prior to real human plasma samples. For method validation, four concentration levels were prepared in artificial plasma at 50, 125, 6000, and 13 000 pg/mL. Two concentration levels (193 and 7752 pg/mL) were evaluated for stability testing.
(§2) Each concentration level was tested in triplicate.

[4] = Autosampler (re-injection) stability at 4°C for 24 h; assay type: in vitro ADME; details: autosampler (AS) 4°C, triplicate, 2D-LC-MS/MS
Protocol: as §3, §4

[5] = Long-term stability in artificial plasma at −20°C; assay type: in vitro ADME; details: triplicate, 2D-LC-MS/MS
Protocol: as §3, §4

[6] = Short-term (bench-top) stability at room temperature in artificial plasma with and without 1% PIC; details: triplicate, 2D-LC-MS/MS
Protocol: as §1, §2

[7] = Long-term stability in artificial plasma at −80°C; assay type: in vitro ADME; details: triplicate, 2D-LC-MS/MS
Protocol: as §3, §4

[8] = Insulin concentrations in patient plasma samples (2D-LC-MS/MS); assay type: in vivo, human
Protocol: Patient samples were collected in K2EDTA tubes, and centrifuged, and 250 µL aliquots were either analyzed immediately or stored at −80°C for analysis the following day. A previously published method [12] was used for sample preparation, including protein precipitation, conversion of analytes to anions, and micro SPE (µSPE) using Oasis MAX multimodal sorbent (Waters) in a 96‐well design. […] QuanRecovery with MaxPeak 700 µL plates (Waters) were used for elution after SPE and subsequent injection for 2D‐LC‐MS/MS analysis.
To assess the clinical applicability of the proposed method, 30 patient samples (16 males and 15 females) were analyzed. Plasma samples (collected in K2EDTA tubes) were supplied to the Department of Forensic Medicine.

[9] = artificial plasma (BZ273) with 1% PIC, 7752 pg/mL, % of concentration at time zero
[10] = artificial plasma (BZ273) without PIC, 7752 pg/mL, % of nominal concentration
[11] = artificial plasma (BZ273) with 1% PIC, 193 pg/mL, % of concentration at time zero
[12] = artificial plasma (BZ273) with 1% PIC, 193 pg/mL, % of concentration at time zero (=100%)
[13] = artificial plasma (BZ273) with 1% PIC, 7752 pg/mL, % of concentration at time zero (=100%)
[14] = artificial plasma (BZ273) without PIC, 193 pg/mL, % of nominal concentration (=100%)
[15] = artificial plasma (BZ273) without PIC, 7752 pg/mL, % of nominal concentration (=100%)

Human insulin
24 h, change (%) [1, 9]: 111.6% | 24 h, change (%) [1, 10]: 100.2% | 48 h, change (%) [1, 11]: 116.6% | 48 h, change (%) [1, 10]: 94.6% | 72 h, change (%) [1, 9]: 92.9% | 72 h, change (%) [1, 10]: 87.1% | Difference in concentration between vial types (adsorption to container surfaces) [2]: up to 50% | 3 h 4°C, change (%) [3, 12]: 100.4% | 24 h 4°C, change (%) ([3]; artificial plasma (BZ273) with 1% PIC, 193 pg/mL, 24 h, % of concentration at time zero (=100%)): 87.9% | 6 h 4°C, change (%) [3, 13]: 98.6% | 6 h 4°C, change (%) [3, 14]: 105.6% | 3 h 4°C, change (%) [3, 15]: 90.2% | 24 h AS, change (%) ([4]; extracted samples from artificial plasma with 1% PIC, 193 pg/mL, % of concentration at time zero (=100%)): 105.9% | 24 h AS, change (%) ([4]; extracted samples from artificial plasma without PIC, 7752 pg/mL, % of nominal concentration (=100%)): 100.5% | 1 week, change (%) [5, 11]: 70.1% | 1 week, change (%) [5, 9]: 54.9% | 2 weeks, change (%) [5, 9]: 61.8% | 2 weeks, change (%) ([5]; artificial plasma (BZ273) without PIC, 193 pg/mL, % of nominal concentration): 106.3% | 3 weeks, change (%) ([5]; 3 weeks, artificial plasma (BZ273) with 1% PIC, 7752 pg/mL, % of concentration at time zero): 25.9% | 0 h, change (%) [6, 12]: 100.0% | 24 h, change (%) [6, 12]: 72.1% | 0 h, change (%) [6, 13]: 100.0% | 6 h, change (%) [6, 13]: 86.4% | 24 h, change (%) [6, 13]: 67.4% | 0 h, change (%) [6, 14]: 100.1% | 0 h, change (%) [6, 15]: 99.1% | 6 h, change (%) [6, 15]: 95.1% | 1 week, change (%) ([7]; 1 week, artificial plasma (BZ273) without PIC, 7752 pg/mL, % of nominal concentration): 100.1% | 2 weeks, change (%) [7, 11]: 105.8% | 2 weeks, change (%) [7, 9]: 111.9% | 2 weeks, change (%) [7, 10]: 106.0% | Concentration range (pg/mL) in patient samples ([8]; human plasma (K2EDTA), 30 patient samples from the Department of Forensic Medicine (unexplained deaths), range over quantified samples): 219.1 to 6065.2 pg/mL | Concentration in a real patient sample ([8]; human plasma, single patient sample of Figure 2): LLOQ
